T1: recombinant matriptase protease domain with an N-terminal thioredoxin tag (Trx-MTX PD) (human) (UniProt Q9Y5Y6)
T1 sequence: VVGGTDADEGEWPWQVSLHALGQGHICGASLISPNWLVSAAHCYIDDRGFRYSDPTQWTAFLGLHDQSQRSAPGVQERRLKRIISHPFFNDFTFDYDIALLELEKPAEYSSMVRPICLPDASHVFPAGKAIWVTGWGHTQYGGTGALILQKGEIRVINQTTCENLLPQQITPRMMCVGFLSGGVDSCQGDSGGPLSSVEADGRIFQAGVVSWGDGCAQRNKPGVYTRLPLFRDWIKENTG

T2: recombinant matriptase protease domain with an N-terminal thioredoxin tag (Trx-MTX PD) (human, UniProt Q9Y5Y6 615-854)
T2 chain: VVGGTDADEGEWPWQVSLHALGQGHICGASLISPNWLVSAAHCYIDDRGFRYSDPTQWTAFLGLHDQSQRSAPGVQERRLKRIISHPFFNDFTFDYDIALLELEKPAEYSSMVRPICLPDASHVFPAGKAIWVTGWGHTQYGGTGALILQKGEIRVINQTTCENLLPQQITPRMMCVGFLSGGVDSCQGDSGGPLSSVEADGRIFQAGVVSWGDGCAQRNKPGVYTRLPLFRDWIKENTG


How the values were obtained:
[1] = target: T1, recombinant matriptase protease domain with an N-terminal thioredoxin tag (Trx-MTX PD) (human)
[2] = target: T2, recombinant matriptase protease domain …; assay: SPR
[3] = target: T1, recombinant matriptase protease domain with an N-terminal thioredoxin tag (Trx-MTX PD) (human); assay: SPR; BIAcore; Trx-MTX PD amine-coupled to a CM5 chip; GST fusion proteins as analytes at 30 µl/min, 120 sec association, 180 sec dissociation; 10 mM HEPES, 150 mM NaCl, pH 7.4; KD by affinity analysis (BIAevaluation), called estimated

Molecule | Kd [2] [nM] | Kd [3] [nM] | other results
recombinant HAI-2 KD1-deleted mutant (rHAI-2ΔKD1) from the baculovirus expression system (from UniProt O43291 28-197) (domain or fragment) | – | – | inhibition of the in vitro proteolytic activity of Trx-MTX PD (100 nM) on Boc-Gln-Ala-Arg-AMC by rHAI-2ΔKD1 (500 nM) [1]: 80%
recombinant HAI-2 KD2-deleted mutant (rHAI-2ΔKD2) from the baculovirus expression system (from UniProt O43291 28-197) (domain or fragment) | – | – | inhibition of the in vitro proteolytic activity of Trx-MTX PD (100 nM) on Boc-Gln-Ala-Arg-AMC by rHAI-2ΔKD2 (500 nM) [1]: 99%
GST fusion protein of HAI-2 Kunitz domain 2 (GST-KD2) (domain or fragment) CTANAVTGPCRASFPRWYFDVERNSCNNFIYGGCRGNKNSYRSEEACMLRC | 35.5 | 10 | –
GST fusion protein of HAI-2 Kunitz domain 1 (GST-KD1) (domain or fragment) CLVSKVVGRCRASMPRWWYNVTDGSCQLFVYGGCDGNSNNYLTKEECLKKC | 45.7 | 10 | –
recombinant HAI-2 wild type (rHAI-2 WT) from the baculovirus expression system (domain or fragment) ADRERSIHDFCLVSKVVGRCRASMPRWWYNVTDGSCQLFVYGGCDGNSNNYLTKEECLKKCATVTENATGDLATSRNAADSSVPSAPRRQDSEDHSSDMFNYEEYCTANAVTGPCRASFPRWYFDVERNSCNNFIYGGCRGNKNSYRSEEACMLRCFRQQENPPLPLGSK | – | – | inhibition of the in vitro proteolytic activity of Trx-MTX PD (100 nM) on Boc-Gln-Ala-Arg-AMC by rHAI-2 WT (500 nM) [1]: 99%
